Residue numbers refer to the chain shown, from its start. Where two headings read alike, the source gives them in different places. Each block holds one molecule with its values, some of them ahead of it.
How the values were obtained:
[1] = target: Mature full-length TFAM (human mitochondrial transcription factor A, residues 43-246) (human) (UniProt Q00059); experiment: ITC
[2] = target: Mature full-length TFAM (human mitochondrial transcription factor A, residues 43-246) (human) (UniProt Q00059); experiment: AUC
[3] = target: Mature full-length TFAM (human mitochondrial transcription factor A, residues 43-246) (human) (UniProt Q00059); experiment: SEC-MALLS
[4] = target: Mature full-length TFAM (human mitochondrial transcription factor A, residues 43-246) (human) (UniProt Q00059); experiment: AUC; remark: listed apart in the source
[5] = target: Mature full-length TFAM (human mitochondrial transcription factor A, residues 43-246) (human) (UniProt Q00059); experiment: SEC-MALLS; remark: listed apart in the source
[6] = target: T1, TFAM-C49A, A488 at C-terminal Cys246 (Homo sapiens, UniProt Q00059 43-246, C49A); experiment: FRET
T1 sequence: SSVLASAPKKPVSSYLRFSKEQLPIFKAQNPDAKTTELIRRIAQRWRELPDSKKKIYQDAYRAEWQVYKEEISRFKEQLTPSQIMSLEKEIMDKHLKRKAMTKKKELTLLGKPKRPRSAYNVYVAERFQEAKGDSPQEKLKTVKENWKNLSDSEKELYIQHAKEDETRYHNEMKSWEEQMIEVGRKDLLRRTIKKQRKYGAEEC

[7] = target: T1, TFAM-C49A, A488 at C-terminal Cys246; experiment: FRET; remark: listed apart in the source
TFAM WT (mature) [8] = target: T2, TFAM WT (mature) (Homo sapiens, UniProt Q00059 43-246); experiment: X-ray crystallography
T2 sequence: T1 sequence with A7C

[9] = target: T1, TFAM-C49A, A488 at C-terminal Cys246; experiment: FRET; remark: listed apart in the source
[10] = target: T1, TFAM-C49A, A488 at C-terminal Cys246; experiment: FRET; remark: listed apart in the source
native gel or EMSA = target: the molecule itself; experiment: native gel or EMSA
TFAM WT (mature) [11] = target: T2, TFAM WT (mature); experiment: EMSA

- stoichiometry N [1]: 2
- stoichiometry N [2]: 2
- stoichiometry N [3]: 2
- stoichiometry N [4]: 2
- stoichiometry N [5]: 2
Molecule: Mature full-length TFAM (human mitochondrial transcription factor A, residues 43-246) (from UniProt Q00059 43-246) (natural protein)

B1: Site-X3* 28 (dsDNA)
DNA 1: TATCATAACAAAAAATTTCCACCAAACA
DNA 2: TGTTTGGTGGAAATTTTTTGTTATGATA
- binding result [6]: binds

B2: Site-Y5* 28 (dsDNA)
DNA 1: TAGAGGCTGTGCAGACATTCAATTGTTA
DNA 2: TAACAATTGAATGTCTGCACAGCCTCTA
- binding result [7]: binds

B3: Site-YBr 22 (dsDNA)
DNA 1: TAACAATTGAATGTCTGCACAG
DNA 2: CTGTGCAGACATTCAATTGTTA
modifications: brominated at thymine positions (positions not given)
- binding result (TFAM WT (mature) [8]): binds

B4: Site-Y3* 28 (dsDNA)
DNA 1: TAGAGGCTGTGCAGACATTCAATTGTTA
DNA 2: TAACAATTGAATGTCTGCACAGCCTCTA
- binding result [9]: binds

B5: Site-X5* 28 (dsDNA)
DNA 1: TATCATAACAAAAAATTTCCACCAAACA
DNA 2: TGTTTGGTGGAAATTTTTTGTTATGATA
- binding result [10]: binds

B6: TFAM C-terminal tail deletion mutant (TFAM-CTΔ26) (domain or fragment, human, UniProt Q00059 43-220, looked up)
chain: SSVLASCPKKPVSSYLRFSKEQLPIFKAQNPDAKTTELIRRIAQRWRELPDSKKKIYQDAYRAEWQVYKEEISRFKEQLTPSQIMSLEKEIMDKHLKRKAMTKKKELTLLGKPKRPRSAYNVYVAERFQEAKGDSPQEKLKTVKENWKNLSDSEKELYIQHAKEDETRYHNEMKSWEE
- binding result (native gel or EMSA): binds

B7: Site-X 22 (dsDNA)
DNA 1: TAACAAAAAATTTCCACCAAAC
DNA 2: TTTGGTGGAAATTTTTTGTTAG
- Kd (TFAM WT (mature) [11]): 13.6 ± 2.89 nM

— paper PMC6614842 (Nucleic Acids Research, 2019)
